Data: patent publication US6471960B1, “Methods for the prevention or treatment of alzheimer's disease” (Rutgers, the State University, priority 1994, dated 2002)
Values belong to the compound of their own block, whether it stands above or below them.

Experiments:
tPA [1] = molecular target: T1, tPA (Homo sapiens, UniProt P00750); assay: Binding of active site 125I-labeled tPA to amyloid fibrils or fibrin; settings: for effect on tPA binding to amyloid fibrils: ε-aminocaproic acid at 0.1 M (100 mM); for t-PA binding relative to wt β1-28 and fibrin controls: fibrils of Charged→Gln β(1-28) variants
Procedure: In this study, D-Tyr-Pro-Arg-chloromethyl ketone (Bachem Bioscience) was radioiodinated by the chloramine-T method and subsequently used to irreversibly bind to the active site of tPA. (Keyt, et al, Anal. Biochem. 206:73-83 (1992)). 1 mCi of I^125 was mixed with YPRck in 1 M Tris-HCL, 0.01% Tween 20 at pH 7.5. To initiate iodination 10 μl of 1 mg/ml Chloramine-T was added. After 1 minute, 20 μl of 1 mg/ml sodium metabisulfite was added to reduce the Chloramine-T and iodide. 15 μl of 1 mg/ml tPA was then added, and the mixture was incubated at room temperature for 1 hour to allow the YPRck to bind to the tPA. Radiolabeled tPA was purified from free iodine and unreacted YPRck using a PD-10 column preequilibrated with PBS and 0.003% Tween 20. The labeled protein was stored at −20° C.
(§1) Synthetic Amyloid Fibril Formation—β1-28 (Chiron Mimotopes Peptide Systems) and β1-40 (Bachem Bioscience) peptides were dissolved in water. Aggregation solution conditions were 1×PBS, 1 mg/ml β-peptide and the pH was adjusted to the theoretical pI of the peptides (5.6 for β1-28 and 4.9 for β1-40). Solutions were kept at room temperature.
Binding of Active Site-labeled tPA to Amyloid Fibrils or to Fibrin—tPA binding was determined by a modification of the method of Higgins and Vehar, Biochem. 26:7786-7791 (1987)).
To confirm that the labeled tPA's protein binding surface was not altered by the radioiodination, it was bound to fibrin by substituting fibrinogen for the fibrils. Fibrin clot formation was initiated by adding 0.4 units/ml (final human thrombin. The remainder of the assay proceeded as above.
Ihibition of kringle-dependent labeled tPA Binding to Amyloid Fibrils and Fibrin Using ε-aminocaproic acid to the binding solutions were set up on the same manner as previously noted except that ε-aminocaproic acid at 0.1 M was included in the conditions.
Previous studies of the interaction of human tissue plasminogen activator with the amyloid β peptide employed a functional plasminogen activation assay (Kingston, I. B. et al., Nature Medicine 1:138-142 (1995); Castro, M. J. M., et al., Analyt. Biochem. 226:225-231 (1995)). However, to understand this interaction more fully, a sensitive and quantitative assay for measuring direct amyloid β peptide binding by t-PA and other fibrin(ogen)-binding proteins (e. g., plasmin) was employed in the present invention. For this purposed a specific probe molecule, D-Tyr-Pro-Arg chloromethyl ketone (YPACK), was radioiodinated with ^125I then reacted with t-PA, plasmin, and thrombin to effect covalent active site modification of their respective protease domains (Keyt, B. A. et al., Analyt. Biochem. 206:73-83 (1992)). Binding of ^125I-YPACK-modified t-PA to fibrin and amyloid β peptide fibrils was carried out by a modification of the method of Higgins, D. L. et al. (Fibrinolysis 6:161-166 (1992)). Incubations of t-PA (0.5 nM) with fibrin or fibrils (100 μg/ml) were in 1X phosphate buffered saline, 0.01% Tween-80, 0.5% bovine serum albumin, pH 7.4, for 60 min. at 37° C. In some instances, ε-amino caproic add (ε-ACA) was also present at a concentration of 100 mM.

[2] = Fibril formation (electron microscopy, light scattering); type: physicochemical; settings: pH adjusted to theoretical pI
Procedure: Fibril formation was accomplished by taking the peptides up in water. 10×calcium and magnesium free phosphate buffered saline (“PBS”) was added to give a 1×PBS solution (2.7 mM KCl, 1.2 mM KH2PO4, 138 mM NaCl, 8.1 mM Na2HPO4). Fibril formation was obtained by adjusting the pH to the theoretical pI of the β-amyloid peptides. The theoretical pI of β-amyloid peptide 1-42 was 4.9; the theoretical pI of β-amyloid peptide 1-28 was 5.6; the theoretical pI of β-amyloid peptide 1-28 (Dutch) was 6.2. The final concentration of peptide was 1 mg/ml. […] Fibrils were observed immediately or within no more than two days at room temperature. Small aliquots of suspended aggregated peptides were absorbed onto carbon-coated copper grids and stained with 2% (w/v) uranyl acetate. Samples were examined in a JEOL 1200EX electron microscope.
as §1, with “temperature. Fibril formation was confirmed by light scattering and transmission electron microscopy.” for “temperature.”
It had been possible that some of the charged→glutamine peptide variants might not form fibrils. […]

[3] = molecular target: tissue plasminogen activator (Homo sapiens, UniProt P00750); assay: Plasminogen activation stimulation assay (H-D-valyl-L-leucyl-L-lysine-p-nitroanilide), Example 3; type: biochemical; settings: stimulators at 56 μg/ml
Procedure: To further investigate this relationship, the ability of amyloid β peptide fibrils to stimulate tissue plasminogen activator was studied. For this purpose, plasminogen activation assays were carried out as described by Bennett, W. F. et al., J. Biol. Chem. 266:5191-5201 (1991)). Plasmin generation was monitored by measuring the absorbance change at 405 nm produced by hydrolysis of the substrate, H-D-valyl-L-leucyl-L-lysine-p-nitroanilide. Stimulators tested were present in the assay at a concentration of 56 μg/ml. The apparent first-order rate constants of plasminogen activation t-PA were measured for various stimulators. Rate constants were determined as described by Castro, M. J. M., et al., Analyt. Biochem. 226:225-231 (1995)) using fresh or aged amyloid β peptide fibrils or control proteins.
The twelve β1-28 peptide analogs were used for plasminogen activation and direct binding assays with the fibrinogen-binding proteins t-PA, plasmin, and thrombin, specifically labeled at their respective protease domain active sites as described above. For five of the peptide variants R5Q, […], D23Q, and K28Q, t-PA binding was reduced relative to its binding to both wt β1-28 and fibrin controls, implying that the t-PA binding “footprint” on the fibrils was rather large. […]

tPA [4] = molecular target: T1, tPA; assay: Plasminogen activation by t-PA, initial velocities under steady state conditions (S-2251, Lineweaver-Burk); type: biochemical; design: purchased Genentech, Inc. Activase; settings: unaggregated peptides

T1 sequence (P00750 36-562): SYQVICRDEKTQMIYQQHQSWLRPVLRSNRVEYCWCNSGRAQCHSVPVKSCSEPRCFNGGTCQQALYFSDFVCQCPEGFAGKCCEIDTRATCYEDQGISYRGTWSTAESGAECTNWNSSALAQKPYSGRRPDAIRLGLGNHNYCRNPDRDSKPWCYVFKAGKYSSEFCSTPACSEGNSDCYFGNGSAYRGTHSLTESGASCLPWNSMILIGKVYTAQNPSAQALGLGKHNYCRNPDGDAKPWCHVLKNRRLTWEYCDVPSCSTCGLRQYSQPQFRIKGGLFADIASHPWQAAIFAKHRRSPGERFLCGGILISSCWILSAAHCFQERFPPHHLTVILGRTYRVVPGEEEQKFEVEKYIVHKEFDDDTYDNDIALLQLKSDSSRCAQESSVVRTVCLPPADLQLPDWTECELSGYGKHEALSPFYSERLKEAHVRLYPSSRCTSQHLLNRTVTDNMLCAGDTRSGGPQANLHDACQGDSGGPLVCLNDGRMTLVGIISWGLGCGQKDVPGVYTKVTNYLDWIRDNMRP
Chain of tissue plasminogen activator (P00750 23-562 limits assumed): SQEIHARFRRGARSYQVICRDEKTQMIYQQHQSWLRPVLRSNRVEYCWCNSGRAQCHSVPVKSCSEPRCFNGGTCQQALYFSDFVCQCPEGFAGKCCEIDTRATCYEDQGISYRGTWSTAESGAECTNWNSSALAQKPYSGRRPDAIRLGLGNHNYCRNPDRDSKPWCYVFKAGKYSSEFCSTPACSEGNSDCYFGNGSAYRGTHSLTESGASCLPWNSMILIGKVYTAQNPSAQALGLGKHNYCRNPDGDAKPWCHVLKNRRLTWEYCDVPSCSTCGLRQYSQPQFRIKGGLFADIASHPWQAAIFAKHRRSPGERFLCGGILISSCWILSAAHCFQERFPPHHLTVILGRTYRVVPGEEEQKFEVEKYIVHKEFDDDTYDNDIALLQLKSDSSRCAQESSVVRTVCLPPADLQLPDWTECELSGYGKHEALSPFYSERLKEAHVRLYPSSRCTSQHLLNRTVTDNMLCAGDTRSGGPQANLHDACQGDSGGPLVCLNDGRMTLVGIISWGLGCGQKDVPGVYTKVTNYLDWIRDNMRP

effect on tPA binding to amyloid fibrils (tPA [1]): capable of competing out amyloid binding | effect on tPA binding to amyloid fibrils (tPA [1]; listed as ε-amino caproic acid): partially blocked
Compound: NCCCCCC(=O)O [ε-aminocaproic acid, reference compound]

Compound: Corticotropin Releasing Factor: control peptide, 41 amino acids
fibril formation [2]: did not form fibrils

t-PA binding relative to wt β1-28 and fibrin controls (tPA [1]): reduced
Compound: DAEFQHDSGYEVHHQKLVFFAEDVGSNK [R5Q]

t-PA binding relative to wt β1-28 and fibrin controls (tPA [1]): reduced
Compound: DAEFRHDSGYEVHHQKLVFFAEDVGSNQ [K28Q]
stimulation of t-PA-mediated plasminogen activation [3]: profoundly decreased levels of stimulation

t-PA binding relative to wt β1-28 and fibrin controls (tPA [1]): reduced
Compound: DAEFRHDSGYEVHHQKLVFFAEQVGSNK [D23Q]

stimulation of t-PA-mediated plasminogen activation [3]: enhanced stimulation
Compound: DAEFRHDSGYEVHHQQLVFFAEDVGSNK [K16Q]

Compound: Fibrinogen
Km (tPA [4]; Km of t-PA for plasminogen with the stimulator present): 3.3 µM | kcat (tPA [4]; kcat of t-PA with the stimulator present): 0.051 s⁻¹

Compound: Growth Hormone Releasing Factor: control peptide, 29 amino acids
fibril formation [2]: did not form fibrils

Kd of t-PA binding to fibrils (tPA [1]; 125I-YPACK-modified t-PA): sub-nanomolar range | % tPA Bound (tPA [1]; about 0.5 nM labeled tPA, 0.1 mg/ml fibrils or fibrin, 1 hour): 62% | tPA binding to amyloid fibrils (qualitative) (tPA [1]; radiolabeled tPA, tPA:fibrin binding as control): binds
Compound: β 1-40 Amyloid Fibrils: synthetic β1-40 amyloid peptide (Bachem Bioscience), aggregated to fibrils
